Source: US20060121032A1

These substances were tested against FcγRIIIa on human PBMCs expressing heterozygous V158/F158 FcγRIIIa (human) (UniProt P08637) (assay: cell-based or functional assay).
FcγRIIIa on human PBMCs expressing heterozygous V158/F158 FcγRIIIa (human), sequence (P08637 17-254): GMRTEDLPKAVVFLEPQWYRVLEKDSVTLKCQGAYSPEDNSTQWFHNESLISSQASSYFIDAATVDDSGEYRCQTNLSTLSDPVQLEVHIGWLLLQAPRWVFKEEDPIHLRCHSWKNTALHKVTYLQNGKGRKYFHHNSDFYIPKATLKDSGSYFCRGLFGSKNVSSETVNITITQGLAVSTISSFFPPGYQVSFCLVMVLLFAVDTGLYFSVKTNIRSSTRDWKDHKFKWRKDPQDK

Row | ADCC EC50 (ng/ml), DoHH-2 target cells, human PBMCs [ng/mL] | ADCC log(EC50), DoHH-2 target cells, human PBMCs | Substance
1 | 3 | 0.49 log(ng/ml) | alemtuzumab S239D/I332E (antibody)
2 | 4 | 0.6 log(ng/ml) | alemtuzumab V264I/I332E (antibody)

The substances below were run against extracellular region of human F158 FcγRIIIa with C-terminal 6×His-tag and GST-tag (human) (UniProt P08637) (assay: SPR, receptor on chip).
extracellular region of human F158 FcγRIIIa with C-terminal 6×His-tag and GST-tag (human), sequence (P08637 17-208): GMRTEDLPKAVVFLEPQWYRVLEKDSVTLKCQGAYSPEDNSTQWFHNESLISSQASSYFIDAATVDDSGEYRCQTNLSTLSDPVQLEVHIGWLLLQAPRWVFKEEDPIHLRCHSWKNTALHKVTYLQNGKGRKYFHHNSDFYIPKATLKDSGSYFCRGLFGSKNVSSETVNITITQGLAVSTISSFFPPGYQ

Row | Substance | Kd [nM]
3 | WT alemtuzumab (antibody) | 730
4 | alemtuzumab S298A (antibody) | 285
5 | alemtuzumab V264I (antibody) | 550

Second part, the substance after the results:

Row | Kd [nM] | Substance
6 | 72 | alemtuzumab I332E (antibody)
7 | 156 | alemtuzumab S298A/E333A/K334A (antibody)
8 | 52 | alemtuzumab V264I/I332E (antibody)
